Patent US20070185311A1 (EPIX MEDICAL INC A DELAWARE, published 2007)
Starred links: 1 amine or outer side, 2 acyl side, 3 side chain; linkers in the order of their positions; H or OH if unused. Positions of bridges follow the written chain, without caps; N, C: chain ends. Non-standard residues stand in square brackets, D forms with d. No end group written: not given here. Phe(4-OMe) = COc1ccc(C[C@H](N[*:1])C(=O)[*:2])cc1; Bpa = N[C@@H](Cc1ccc(C(=O)c2ccccc2)cc1)C(=O)O; Tyr(3-Cl) = N[C@@H](Cc1ccc(O)c(Cl)c1)C(=O)O; Tyr(3-I) = N[C@@H](Cc1ccc(O)c(I)c1)C(=O)O; Phe(4-F) = N[C@@H](Cc1ccc(F)cc1)C(=O)O; 1Nal = N[C@@H](Cc1cccc2ccccc12)C(=O)O; Hyp = O=C(O)[C@@H]1C[C@@H](O)CN1; 3Pal = N[C@@H](Cc1cccnc1)C(=O)O; 4Pal = N[C@@H](Cc1ccncc1)C(=O)O; MTyr = not defined here; Cmp = not defined here

B1: F(4-OMe)-H-C-Hyp-Y(3-Cl)-D-L-C-H-I-L (peptide)
peptide: [Phe(4-OMe)]HC[Hyp][Tyr(3-Cl)]DLCHIL
modifications: disulfide 3-8 (inferred)
B2: F-H-C-Hyp-Y(3-Cl)-D-L-C-H-I (peptide)
peptide: FHC[Hyp][Tyr(3-Cl)]DLCHI
modifications: disulfide 3-8 (inferred)
B3: L-P-C-D-Y-Y-G-T-C-Bip-D (peptide)
peptide: LPCDYYGTCXD
modifications: Bip at 10
B4: L-P-C-D-Y-Y-G-T-C-Bip-dD (peptide)
peptide: LPCDYYGTCXD
modifications: Bip at 10; dD at 11
B5: L-P-C-D-Y-Y-G-T-C-Me-Bip-D (peptide)
peptide: LPCDYYGTCXD
modifications: Me-Bip at 10
B6: L-P-C-D-Y-Y-G-T-C-MeL-Cmp (peptide)
peptide: LPCDYYGTC[MeL][Cmp]
modifications: cysteine pairing not given here; reading uncertain; also: printed as L-P-C-D-Y-Y-G-T-C-MeL-Cmp
B7: F(4-OMe)-H-C-Hyp-Y(3-I)-D-L-C-H-I (peptide)
peptide: [Phe(4-OMe)]HC[Hyp][Tyr(3-I)]DLCHI
modifications: disulfide 3-8 (inferred)
B8: 3Pal-H-C-Hyp-Y(3-I)-D-L-C-H-I (peptide)
peptide: [3Pal]HC[Hyp][Tyr(3-I)]DLCHI
modifications: disulfide 3-8 (inferred)
B9: 4Pal-H-C-Hyp-Y(3-I)-D-L-C-H-I (peptide)
peptide: [4Pal]HC[Hyp][Tyr(3-I)]DLCHI
modifications: disulfide 3-8 (inferred)
B10: F(4-F)-H-C-Hyp-Y(3-I)-D-L-C-H-I (peptide)
peptide: [Phe(4-F)]HC[Hyp][Tyr(3-I)]DLCHI
modifications: disulfide 3-8 (inferred)
B11: Y(3-I)-H-C-Hyp-Y(3-I)-D-L-C-H-I (peptide)
peptide: [Tyr(3-I)]HC[Hyp][Tyr(3-I)]DLCHI
modifications: disulfide 3-8 (inferred)
B12: F-H-C-Hyp-Y(3-I)-D-L-C-H-I-L (peptide)
peptide: FHC[Hyp][Tyr(3-I)]DLCHIL
modifications: disulfide 3-8 (inferred)
B13: F(4-OMe)-H-C-Hyp-Y(3-Cl)-D-L-C-H-Bpa-L (peptide)
peptide: [Phe(4-OMe)]HC[Hyp][Tyr(3-Cl)]DLCH[Bpa]L
modifications: disulfide 3-8 (inferred)
B14: F(4-OMe)-H-C-Hyp-Y(3-I)-D-L-C-H-Bpa-L (peptide)
peptide: [Phe(4-OMe)]HC[Hyp][Tyr(3-I)]DLCH[Bpa]L
modifications: disulfide 3-8 (inferred)
B15: F-H(Bzl)-C-Hyp-Y(3-Cl)-D-L-C-H-I-L (peptide)
peptide: F[His(Bzl)]C[Hyp][Tyr(3-Cl)]DLCHIL
modifications: disulfide 3-8 (inferred)
B16: F(4-OMe)-H-C-Hyp-Y(3-Cl)-D-L-C-H-I (peptide)
peptide: [Phe(4-OMe)]HC[Hyp][Tyr(3-Cl)]DLCHI
modifications: disulfide 3-8 (inferred)
B17: 1Nal-H-C-Hyp-Y(3-I)-D-L-C-H-I (peptide)
peptide: [1Nal]HC[Hyp][Tyr(3-I)]DLCHI
modifications: disulfide 3-8 (inferred)
B18: MTyr-H-C-Hyp-Y(3-I)-D-L-C-H-I (peptide)
peptide: [MTyr]HC[Hyp][Tyr(3-I)]DLCHI
modifications: disulfide 3-8 (inferred); reading uncertain
B19: F(4-OMe)-H(Bzl)-C-Hyp-Y(3-I)-D-L-C-H-Bpa (peptide)
peptide: [Phe(4-OMe)][His(Bzl)]C[Hyp][Tyr(3-I)]DLCH[Bpa]
modifications: disulfide 3-8 (inferred)
B20: F(4-OMe)-H(Bzl)-C-Hyp-Y(3-Cl)-D-L-C-H-I (peptide)
peptide: [Phe(4-OMe)][His(Bzl)]C[Hyp][Tyr(3-Cl)]DLCHI
modifications: disulfide 3-8 (inferred)
B21: F-H-C-Hyp-Y(3-I)-D-L-C-3Pal-I (peptide)
peptide: FHC[Hyp][Tyr(3-I)]DLC[3Pal]I
modifications: disulfide 3-8 (inferred)

These binders were tested against DD(E) fragment of fibrin (assay: affinity to DD(E) fragment of fibrin).

Q: For B1, which Kd is on record?
A: < 0.1 µM

Q: Which Kd does the source give for B2 here?
A: < 0.1 µM

Q: How did the Kd turn out when B3 was run?
A: < 10 µM

Q: B4 was tested. Which Kd did it give?
A: < 10 µM

Q: For B5, which Kd is on record?
A: < 10 µM

Q: For B6, which Kd is on record?
A: < 10 µM

Q: For B7, which Kd is on record?
A: < 0.1 µM

Q: Which Kd does the source give for B8 here?
A: < 0.1 µM

Q: How did the Kd turn out when B9 was run?
A: < 0.1 µM

Q: With B10 as the binder, how does the Kd read?
A: < 0.1 µM

Q: How did the Kd turn out when B11 was run?
A: < 0.1 µM

Q: For B12, which Kd is on record?
A: < 0.1 µM

Q: B13 was tested. Which Kd did it give?
A: < 0.1 µM

Q: With B14 as the binder, how does the Kd read?
A: < 0.1 µM

Q: For B15, which Kd is on record?
A: < 0.1 µM

Q: With B16 as the binder, how does the Kd read?
A: < 0.1 µM

Q: With B17 as the binder, how does the Kd read?
A: < 0.1 µM

Q: How did the Kd turn out when B18 was run?
A: < 0.1 µM

Q: Which Kd does the source give for B19 here?
A: < 0.1 µM

Q: With B20 as the binder, how does the Kd read?
A: < 0.1 µM

Q: With B21 as the binder, how does the Kd read?
A: < 0.1 µM
